Results on one substance are retold here after patent publication US20260242448A1.

The target of assay [1] is S protein of the SARS-CoV-2 XBB strain on pseudo-virus (SARS-CoV-2 XBB strain). As to the kind of experiment: cell-based or functional assay.
For assay [2], the target named is S protein of the SARS-CoV-2 BQ.1 strain on pseudo-virus (SARS-CoV-2 BQ.1 strain). As to the kind of experiment: cell-based or functional assay.
For assay [3], the target named is S protein of the SARS-CoV-2 BA.1 strain on pseudo-virus (SARS-CoV-2 BA.1 strain). As to the kind of experiment: cell-based or functional assay.
The target of assay [4] is S protein of the SARS-CoV-2 Delta strain on pseudo-virus (SARS-CoV-2 Delta strain). As to the kind of experiment: cell-based or functional assay.
Assay [5] addresses S protein of the SARS-CoV-2 BQ.1.1 strain on pseudo-virus (SARS-CoV-2 BQ.1.1 strain). As to the kind of experiment: cell-based or functional assay.
Assay [6] addresses S protein of the SARS-CoV-2 BA.4/5 strains on pseudo-virus (SARS-CoV-2 BA.4/5 strain). The experiment in a line: cell-based or functional assay.
Assay [7] deals with S protein of the SARS-CoV-2 XBB.1.5 strain on pseudo-virus (SARS-CoV-2 XBB.1.5 strain). The experiment in a line: cell-based or functional assay.
The target in assay [8] is S protein of the SARS-CoV-2 BA.2.75 strain on pseudo-virus (SARS-CoV-2 BA.2.75 strain). As to the kind of experiment: cell-based or functional assay.
In assay [9] the target is S protein of the SARS-CoV-2 BF.7 strain on pseudo-virus (SARS-CoV-2 BF.7 strain). The experiment in a line: cell-based or functional assay.
Assay [10] addresses SARS-CoV-2 (BA.5) Spike RBD (SARS-CoV-2 BA.5 strain). As to the kind of experiment: SPR, Biacore 8K; antibody captured on Protein A chip, RBD as analyte. In general terms: In SPR one partner is held on a chip, and binding of the other changes the refractive index at the surface.
In assay [11] the target is SARS-CoV-2 (BF.7) Spike RBD (SARS-CoV-2 BF.7 strain). Described as above.
For assay [12] the target is unchanged. The experiment in a line: ELISA on plate-coated RBD (1 µg/mL), HRP anti-human Fc detection, OD450. Background: ELISA stands for enzyme-linked immunosorbent assay.

Chain of LY-CoV1404 (antibody) (VH): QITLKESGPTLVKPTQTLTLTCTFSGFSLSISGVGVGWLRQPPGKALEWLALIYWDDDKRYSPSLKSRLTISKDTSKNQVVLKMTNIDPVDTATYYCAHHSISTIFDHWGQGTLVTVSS
Chain of LY-CoV1404 (antibody) (VL): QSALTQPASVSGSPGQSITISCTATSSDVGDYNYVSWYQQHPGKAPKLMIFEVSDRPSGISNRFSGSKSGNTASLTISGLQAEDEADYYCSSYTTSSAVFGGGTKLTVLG

As to LY-CoV1404 (antibody), the Neutralization activity (IC50) against pseudo-virus in assay [1] is greater than 2000 ng/mL; in [2] it was greater than 2000 ng/mL; in assay [3], 1.44 ng/mL; in assay [4], 3.05 ng/mL; in [5], greater than 2000 ng/mL; in assay [6], 1.22 ng/mL. In addition, the values for the Neutralization activity (IC50) against pseudo-virus in assay [7], in assay [8] and in [9] were greater than 2000 ng/mL, 25.1 ng/mL and 2.14 ng/mL, respectively. For the same substance, the Kd (in general, the concentration at which binding is half-saturated) in assay [10] worked out at 0.184 nM; in assay [11], 0.162 nM. Moreover, the off-rate constant (koff) (usually a measure of how fast the partners let go of each other) in assay [10] turned out to be 0.000264 s⁻¹; in [11], 0.000148 s⁻¹. The kon (in general, the rate constant with which the complex forms) stood at 1.44e+06 M⁻¹ s⁻¹ in [10] and 910000 M⁻¹ s⁻¹ in assay [11]. The EC50 (as a rule, the concentration at which the effect is half-maximal) in assay [12] worked out at 0.111 nM.
